Reference: patent US5622930A, “C1 inhibitor muteins and uses thereof” (CLB, priority 1991, dated 1997)

Test system: HNE
Assay: inactivation of C1 inhibitor muteins by elastase (protease sensitivity)
Format: biochemical
Details: neutrophil elastase as the source of protease; compared to wild type C1 inhibitor
Excerpt: FIG. 2 presents a generalized assay screening format for determining both the inhibitory (complex formation) or protease sensitivity (inactivation) of the C1 muteins. The latter measures inactivation of the C1 inhibitor muteins by non-target proteases. This procedure is also described by Eldering et al., 1988, in J. of Biological Chem., 263: 11776. Modifications of these methods are also known in the art.
Using similar approaches, the non-target protease sensitivity of the C1 inhibitor muteins may be determined. Numerous assays may be employed that measure the amount of intact C1 inhibitor mutein, or fragments that are derived from the muteins, remaining after exposure to protease. […] A solid phase assay is preferred whereby C1 inhibitor muteins are reacted with non-target protease bound to a solid matrix and the amount of proteolysis of the muteins measured by determining the amount of intact mutein remaining, or preferably by detecting fragments of the mutein.
An exemplary non-target protease that cleaves C1 is neutrophil elastase. Thus, this enzyme may be coupled to CNBr treated Sepharose 4B, and incubated with a C1 inhibitor mutein, and the presence of proteolytically cleaved C1 mutein monitored using a number of techniques. […] Subsequently, the amount of bound cleaved C1 inhibitor can be determined using a second radiolabelled antibody that recognizes the cleaved molecule. […]

B1: P5 -leu:P3 -ala: C1 inhibitor mutein with Leu at position 440 (P5) and Ala at position 442 (P3) (protein, UniProt P05155 23-500, looked up, variant I440L V442A)
Plasma protease C1 inhibitor: NPNATSSSSQDPESLQDRGEGKVATTVISKMLFVEPILEVSSLPTTNSTTNSATKITANTTDEPTTQPTTEPTTQPTIQPTQPTTQLPTDSPTQPTTGSFCPGPVTLCSDLESHSTEAVLGDALVDFSLKLYHAFSAMKKVETNMAFSPFSIASLLTQVLLGAGENTKTNLESILSYPKDFTCVHQALKGFTTKGVTSVSQIFHSPDLAIRDTFVNASRTLYSSSPRVLSNNSDANLELINTWVAKNTNNKISRLLDSLPSDTRLVLLNAIYLSAKWKTTFDPKKTRMEPFHFKNSVIKVPMMNSKKYPVAHFIDQTLKAKVGQLQLSHNLSLVILVPQNLKHRLEDMEQALSPSVFKAIMEKLEMSKFQPTLLTLPRIKVTTSQDMLSIMEKLEFFDFSYDLNLCGLTEDPDLQVSAMQHQTVLELTETGVEAAAASALSAARTLLVFEVQQPFLFVLWDQQHKFPVFMGRVYDPRA
- susceptibility to inactivation: significantly reduced susceptibility to inactivation

B2: P5 -leu:P3 -leu: C1 inhibitor mutein with Leu at position 440 (P5) and Leu at position 442 (P3) (protein, UniProt P05155 23-500, looked up, variant I440L V442L)
Plasma protease C1 inhibitor: NPNATSSSSQDPESLQDRGEGKVATTVISKMLFVEPILEVSSLPTTNSTTNSATKITANTTDEPTTQPTTEPTTQPTIQPTQPTTQLPTDSPTQPTTGSFCPGPVTLCSDLESHSTEAVLGDALVDFSLKLYHAFSAMKKVETNMAFSPFSIASLLTQVLLGAGENTKTNLESILSYPKDFTCVHQALKGFTTKGVTSVSQIFHSPDLAIRDTFVNASRTLYSSSPRVLSNNSDANLELINTWVAKNTNNKISRLLDSLPSDTRLVLLNAIYLSAKWKTTFDPKKTRMEPFHFKNSVIKVPMMNSKKYPVAHFIDQTLKAKVGQLQLSHNLSLVILVPQNLKHRLEDMEQALSPSVFKAIMEKLEMSKFQPTLLTLPRIKVTTSQDMLSIMEKLEFFDFSYDLNLCGLTEDPDLQVSAMQHQTVLELTETGVEAAAASALSLARTLLVFEVQQPFLFVLWDQQHKFPVFMGRVYDPRA
- susceptibility to inactivation: significantly reduced susceptibility to inactivation
